Values belong to the binder of their own block, whether it stands above or below them.
Legend:
human CD55 [1] = molecular target: T1, human CD55 (human, UniProt P08174 35-353, limits assumed); assay: ELISA on human CD55, HRP-anti-mouse secondary, A450; left panel 'Binding to human CD55 by ELISA', EC50 table below the graph
T1 construct: also called Decay-Accelerating Factor; DAF
T1 sequence (looked up): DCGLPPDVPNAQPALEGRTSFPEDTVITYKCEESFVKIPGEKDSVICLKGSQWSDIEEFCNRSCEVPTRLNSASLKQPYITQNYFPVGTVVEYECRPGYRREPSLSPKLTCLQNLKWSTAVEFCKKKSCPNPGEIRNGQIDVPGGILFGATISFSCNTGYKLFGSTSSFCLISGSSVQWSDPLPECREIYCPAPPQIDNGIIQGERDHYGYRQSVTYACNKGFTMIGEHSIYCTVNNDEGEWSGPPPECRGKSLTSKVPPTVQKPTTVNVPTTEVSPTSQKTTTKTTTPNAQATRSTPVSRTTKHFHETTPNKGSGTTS
Excerpt: (§1) EC₅₀ values were obtained by fitting to a sigmoid non-linear equation, using PRISM. These human antibodies contained mouse IgG2A Fc domains for use in in vivo mouse tumor models and were detected by HRP-anti-mouse secondary antibodies.
as §1

mouse CD55 [2] = molecular target: T2, mouse CD55 (mouse, UniProt Q61475 35-362, limits assumed); assay: ELISA on mouse CD55, HRP-anti-mouse secondary, A450; right panel 'Binding to mouse CD55 by ELISA', EC50 table below the graph
T2 sequence (looked up): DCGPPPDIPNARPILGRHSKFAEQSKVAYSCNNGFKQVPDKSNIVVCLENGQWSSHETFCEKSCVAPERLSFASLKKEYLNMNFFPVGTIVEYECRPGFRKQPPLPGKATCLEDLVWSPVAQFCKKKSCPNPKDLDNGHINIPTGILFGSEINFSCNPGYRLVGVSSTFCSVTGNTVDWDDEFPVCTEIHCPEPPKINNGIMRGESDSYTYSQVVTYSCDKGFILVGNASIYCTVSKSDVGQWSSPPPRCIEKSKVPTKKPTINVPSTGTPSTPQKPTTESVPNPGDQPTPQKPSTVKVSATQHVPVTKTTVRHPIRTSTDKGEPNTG
Excerpt: as §1, §1

human CD55 [3] = molecular target: T1, human CD55; assay: library screen, species specificity summary
mouse CD55 [4] = molecular target: T2, mouse CD55; assay: ELISA on mouse CD55, HRP-anti-mouse secondary, A450; right panel 'Binding to mouse CD55 by ELISA'
Excerpt: as §1, §1

Plate-bound CD55 [5] = molecular target: T3, Plate-bound CD55 (Homo sapiens (Human), UniProt P08174 35-353); assay: competition ELISA on plate-bound CD55, streptavidin-HRP, A450; competitor antibody: None
T3 sequence: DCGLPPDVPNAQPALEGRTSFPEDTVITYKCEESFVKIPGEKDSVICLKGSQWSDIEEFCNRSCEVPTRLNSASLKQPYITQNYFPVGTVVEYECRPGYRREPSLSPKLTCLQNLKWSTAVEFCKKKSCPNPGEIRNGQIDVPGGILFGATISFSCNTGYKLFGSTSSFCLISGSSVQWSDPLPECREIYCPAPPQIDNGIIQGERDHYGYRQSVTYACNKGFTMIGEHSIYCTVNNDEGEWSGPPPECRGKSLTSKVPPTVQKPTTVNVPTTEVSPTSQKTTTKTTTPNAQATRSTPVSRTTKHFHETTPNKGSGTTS
Protocol: (§2) FIG. 3: Competition ELISA data for comparing the epitopes of the mouse+human CD55 binding antibodies.
(§3) Comparison of the epitopes of the mouse+human CD55-binding antibodies was performed by competition ELISA.

Plate-bound CD55 [6] = molecular target: T3, Plate-bound CD55; assay: competition ELISA on plate-bound CD55, streptavidin-HRP, A450; plate pre-incubated with unlabeled competitor P5-4 at 1.0 ug/ml
Protocol: as §2, §3

Plate-bound CD55 [7] = molecular target: T3, Plate-bound CD55; assay: competition ELISA on plate-bound CD55, streptavidin-HRP, A450; plate pre-incubated with unlabeled competitor P5-1J at 1.0 ug/ml
Protocol: as §2, §3

Plate-bound CD55 [8] = molecular target: T3, Plate-bound CD55; assay: competition ELISA; plate-bound CD55 pre-incubated with the unlabeled competitor P5-1J, washed, biotinylated P5-1J titrated, Streptavidin-HRP
Protocol: as §2, §3

Plate-bound CD55 [9] = molecular target: T3, Plate-bound CD55; assay: competition ELISA on plate-bound CD55, streptavidin-HRP, A450; plate pre-incubated with unlabeled competitor P5-2-2A at 1.0 ug/ml
Protocol: as §2, §3

Plate-bound CD55 [10] = molecular target: T3, Plate-bound CD55; assay: competition ELISA; plate-bound CD55 pre-incubated with the unlabeled competitor P5-2-2A, washed, biotinylated P5-1J titrated, Streptavidin-HRP
Protocol: as §2, §3

Plate-bound CD55 [11] = molecular target: T3, Plate-bound CD55; assay: competition ELISA on plate-bound CD55, streptavidin-HRP, A450; plate pre-incubated with control competitor mIgG2A at 1.0 ug/ml (curve lies on that of None)
Protocol: as §2, §3

- EC50 (human CD55 [1]): 4.27 ng/mL
- EC50 (mouse CD55 [2]): 3.46 ng/mL
B1: P5-1 with mouse IgG2A Fc domains (antibody, V domains shown)
VH: EVQLVESGGGLVQPGGSLRLSCAASGFTFSSYYIHWVRQAPGKGLEWVAAISSSSGSTYYADSVKGRFTISADTSKNTAYLQMNSLRAEDTAVYYCARERYFYGDFVFDYWGQGTLVTVSS
VL: DIQMTQSPSSLSASVGDRVTITCRASQSVSSAVAWYQQKPGKAPKLLIYSASSLYSGVPSRFSGSRSGTDFTLTISSLQPEDFATYYCQQYYSSPLTFGQGTKVEIKR
notes: not shown: mouse IgG2A Fc domain

- binding result (human CD55 [3]): binds
B2: P5-3 (antibody, V domains shown)
VH: EVQLVESGGGLVQPGGSLRLSCAASGFTFSSYYIHWVRQAPGKGLEWVAAISSSSGSTYYADSVKGRFTISADTSKNTAYLQMNSLRAEDTAVYYCAREDWHRYERRFYEGFDYWGQGTLVTVSS
VL: DIQMTQSPSSLSASVGDRVTITCRASQSVSSAVAWYQQKPGKAPKLLIYSASSLYSGVPSRFSGSRSGTDFTLTISSLQPEDFATYYCQQYYSSPLTFGQGTKVEIKR

- EC50 (human CD55 [1]): 3.68 ng/mL
- EC50 (mouse CD55 [2]): 22.7 ng/mL
B3: P5-4 with mouse IgG2A Fc domains (antibody, V domains shown)
VH: EVQLVESGGGLVQPGGSLRLSCAASGFTFSSYYIHWVRQAPGKGLEWVAAISSSSGSTYYADSVKGRFTISADTSKNTAYLQMNSLRAEDTAVYYCAREDYYWGDFVFDYWGQGTLVTVSS
VL: DIQMTQSPSSLSASVGDRVTITCRASQSVSSAVAWYQQKPGKAPKLLIYSASSLYSGVPSRFSGSRSGTDFTLTISSLQPEDFATYYCQQYYSSPLTFGQGTKVEIKR
notes: as for B1

- binding result (human CD55 [3]): binds
B4: P5-2 (antibody, V domains shown)
VH: EVQLVESGGGLVQPGGSLRLSCAASGFTFSSYYIHWVRQAPGKGLEWVAAISSSSGSTYYADSVKGRFTISADTSKNTAYLQMNSLRAEDTAVYYCAREVRIHGDFVLDYWGQGTLVTVSS
VL: DIQMTQSPSSLSASVGDRVTITCRASQSVSSAVAWYQQKPGKAPKLLIYSASSLYSGVPSRFSGSRSGTDFTLTISSLQPEDFATYYCQQYYSSPLTFGQGTKVEIKR
notes: also called parent Ab P5-2

- EC50 (read off the curve) (mouse CD55 [4]): ~6 ng/mL
- EC50 (human CD55 [1]): 4.72 ng/mL
B5: P5-2-2A with mouse IgG2A Fc domains (antibody, V domains shown)
VH: EVQLVESGGGLVQPGGSLRLSCAASGFTFSSYYIHWVRQAPGKGLEWVAAISSSSGSTYYADSVKGRFTISADTSKNTAYLQMNSLRAEDTAVYYCAREARFHGDFILDYWGQGTLVTVSS
VL: DIQMTQSPSSLSASVGDRVTITCRASQSVSSAVAWYQQKPGKAPKLLIYSASSLYSGVPSRFSGSRSGTDFTLTISSLQPEDFATYYCQQYYITPLTFGQGTKVEIKR
notes: as for B1

- EC50 (Plate-bound CD55 [5]): 2.13 ng/mL
- EC50 (Plate-bound CD55 [6]): 24.1 ng/mL
- EC50 (Plate-bound CD55 [7]): 108 ng/mL
- fold shift in EC50 (Plate-bound CD55 [8]): 100 fold
- EC50 (Plate-bound CD55 [9]): 21.4 ng/mL
- fold shift in EC50 (Plate-bound CD55 [10]): 20 fold
- EC50 (Plate-bound CD55 [11]): 1.96 ng/mL
B6: P5-1J (antibody, V domains shown)
VH: EVQLVESGGGLVQPGGSLRLSCAASGFTFSHHYIHWVRQAPGKGLEWVAAISTGGGTTYYADSVKGRFTISADTSKNTAYLQMNSLRAEDTAVYYCARERYFNGDFIYDYWGQGTLVTVSS
VL: DIQMTQSPSSLSASVGDRVTITCRASQSVSSAVAWYQQKPGKAPKLLIYSASSLYSGVPSRFSGSRSGTDFTLTISSLQPEDFATYYCQQYYSTPLTFGQGTKVEIKR
notes: also called biotinylated P5-1J; unlabeled P5-1J

- EC50 (human CD55 [1]): 4.07 ng/mL
- EC50 (mouse CD55 [2]): 3.21 ng/mL
B7: P5-1J with mouse IgG2A Fc domains (antibody, V domains shown)
VH: EVQLVESGGGLVQPGGSLRLSCAASGFTFSHHYIHWVRQAPGKGLEWVAAISTGGGTTYYADSVKGRFTISADTSKNTAYLQMNSLRAEDTAVYYCARERYFNGDFIYDYWGQGTLVTVSS
VL: DIQMTQSPSSLSASVGDRVTITCRASQSVSSAVAWYQQKPGKAPKLLIYSASSLYSGVPSRFSGSRSGTDFTLTISSLQPEDFATYYCQQYYSTPLTFGQGTKVEIKR
notes: as for B1

Reference: patent US20220088193A1 (AGONOX, published 2022)
